According to paper PMC3836179 (Nature chemical biology, 2013):

Key:
[1] = biological target: T1, Doc (wild type), toxin of the doc/phd toxin/antitoxin module (UniProt Q06259 1-126); test: ITC
T1 sequence: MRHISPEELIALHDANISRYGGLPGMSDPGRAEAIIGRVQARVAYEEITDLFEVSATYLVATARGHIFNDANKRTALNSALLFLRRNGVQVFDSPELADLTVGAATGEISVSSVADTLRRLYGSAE

Doc = biological target: T2, Doc (UniProt Q06259 1-126); test: ITC
T2 sequence: T1 sequence

B1: antitoxin domain of Phd (residues 52-73) (peptide)
chain: LDAEFASLFDTLDSTNKELVNR
Does B1 bind [1]?
Result: binds

B2: Phd^52-73 (domain or fragment)
chain: LDAEFASLFDTLDSTNKELVNR
Does B2 bind (Doc)?
Result: binds
